The substances below were run against Y1R-eYFP (wild-type Y1R) (human) (UniProt P25929).
Sequence of Y1R-eYFP (wild-type Y1R) (human) (P25929 whole entry): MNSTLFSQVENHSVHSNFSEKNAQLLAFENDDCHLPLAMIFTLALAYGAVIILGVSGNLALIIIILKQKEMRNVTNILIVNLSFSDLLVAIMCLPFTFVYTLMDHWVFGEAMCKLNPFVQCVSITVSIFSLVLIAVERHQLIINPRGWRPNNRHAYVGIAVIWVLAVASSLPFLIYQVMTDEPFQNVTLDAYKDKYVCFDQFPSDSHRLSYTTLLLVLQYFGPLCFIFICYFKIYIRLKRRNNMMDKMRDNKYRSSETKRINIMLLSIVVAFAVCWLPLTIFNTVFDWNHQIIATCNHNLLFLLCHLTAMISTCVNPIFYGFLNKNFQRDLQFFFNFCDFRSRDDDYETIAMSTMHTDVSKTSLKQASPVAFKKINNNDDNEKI

Sequence of peptide YY (PYY) (P10082 29-64): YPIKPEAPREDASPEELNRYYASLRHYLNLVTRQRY
Sequence of PYY(3–36) (P10082 31-64): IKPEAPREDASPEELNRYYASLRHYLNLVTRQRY

Ca2+ signalling assay in HEK293T cells, EC50 [nM] | Substance
77 | PYY(3–36) (from UniProt P10082 31-64) (peptide)
86 | NPY(3–36) (from UniProt P01303 31-64) (peptide)
6.1 | peptide YY (PYY) (from UniProt P10082 29-64)

Reference: publication PMC8844075, “Structural basis of neuropeptide Y signaling through Y1 receptor” (Nature Communications, 2022)
